Patent US20210221873A1 (Dana-Farber, published 2021)

How the values were obtained:
Experiment in all cases: FACS on transfected 293T cells
[1] = target: full-length H14 HA of H14-CU82 (A/mallard/Gurjev/263/82 (H14N5)) (influenza A virus …, UniProt P26136 18-568)
[2] = target: full-length H1 HA of H1-PR34 (A/Puerto Rico/8/34 (H1N1)) (influenza A virus A/Puerto Rico/8/34 …, UniProt P03452 18-565)
[3] = target: full-length H8 HA of H8-ON68 (A/turkey/Ontario/6118/68) (influenza A virus …, UniProt P03456 16-565)
[4] = target: full-length H7 HA of H7-FP34 (A/FPV/Rostock/34 (H7N1)) (influenza A virus A/FPV/Rostock/34 …, UniProt P03459 19-563)
[5] = target: full-length H13 HA of H13-MD77 (A/Gull/MD/704/77 (H13N6)) (influenza A virus A/Gull/MD/704/77 …, UniProt P13103 19-566)
[6] = target: full-length H1 HA of H1-SC1918 (A/South Carolina/1/1918 (H1N1)) (influenza A virus A/South …, UniProt Q9WFX3 18-566)
[7] = target: full-length H2 HA of H2-JP57 (A/Japan/305/57 (H2N2)) (influenza A virus A/Japan/305/57 (H2N2), UniProt P03451 16-562)

full-length H13 HA of H13-MD77 (A/Gull/MD/704/77 (H13N6)), sequence (P13103 19-566): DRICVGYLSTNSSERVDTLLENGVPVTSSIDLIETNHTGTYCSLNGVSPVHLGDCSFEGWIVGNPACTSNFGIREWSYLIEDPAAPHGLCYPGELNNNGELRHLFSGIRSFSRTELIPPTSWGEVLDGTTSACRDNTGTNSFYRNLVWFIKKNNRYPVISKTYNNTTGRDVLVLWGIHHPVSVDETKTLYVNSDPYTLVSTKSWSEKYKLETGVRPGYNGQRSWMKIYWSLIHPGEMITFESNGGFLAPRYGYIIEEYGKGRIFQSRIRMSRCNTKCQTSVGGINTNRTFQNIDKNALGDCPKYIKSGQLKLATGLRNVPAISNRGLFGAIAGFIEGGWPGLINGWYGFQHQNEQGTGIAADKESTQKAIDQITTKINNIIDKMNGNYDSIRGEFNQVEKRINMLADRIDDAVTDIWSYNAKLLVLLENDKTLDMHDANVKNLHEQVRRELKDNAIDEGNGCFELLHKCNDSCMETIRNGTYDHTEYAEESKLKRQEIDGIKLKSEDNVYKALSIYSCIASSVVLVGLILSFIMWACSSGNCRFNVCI
full-length H1 HA of H1-PR34 (A/Puerto Rico/8/34 (H1N1)), sequence (P03452 18-565): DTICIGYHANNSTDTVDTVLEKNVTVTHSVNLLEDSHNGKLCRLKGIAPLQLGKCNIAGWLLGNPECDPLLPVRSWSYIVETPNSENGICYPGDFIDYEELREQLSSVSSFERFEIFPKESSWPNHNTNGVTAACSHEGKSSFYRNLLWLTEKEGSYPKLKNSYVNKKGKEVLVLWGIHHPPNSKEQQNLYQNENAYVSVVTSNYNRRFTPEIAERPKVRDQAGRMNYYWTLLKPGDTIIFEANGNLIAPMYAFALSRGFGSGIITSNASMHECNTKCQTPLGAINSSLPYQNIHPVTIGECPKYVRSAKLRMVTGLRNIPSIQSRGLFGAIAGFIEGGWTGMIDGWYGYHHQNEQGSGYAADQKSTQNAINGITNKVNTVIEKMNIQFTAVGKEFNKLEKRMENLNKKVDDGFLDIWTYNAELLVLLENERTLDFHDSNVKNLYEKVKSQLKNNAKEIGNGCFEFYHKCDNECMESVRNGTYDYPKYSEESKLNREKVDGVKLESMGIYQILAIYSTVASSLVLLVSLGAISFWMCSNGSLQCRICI
full-length H14 HA of H14-CU82 (A/mallard/Gurjev/263/82 (H14N5)), sequence (P26136 18-568 limits assumed): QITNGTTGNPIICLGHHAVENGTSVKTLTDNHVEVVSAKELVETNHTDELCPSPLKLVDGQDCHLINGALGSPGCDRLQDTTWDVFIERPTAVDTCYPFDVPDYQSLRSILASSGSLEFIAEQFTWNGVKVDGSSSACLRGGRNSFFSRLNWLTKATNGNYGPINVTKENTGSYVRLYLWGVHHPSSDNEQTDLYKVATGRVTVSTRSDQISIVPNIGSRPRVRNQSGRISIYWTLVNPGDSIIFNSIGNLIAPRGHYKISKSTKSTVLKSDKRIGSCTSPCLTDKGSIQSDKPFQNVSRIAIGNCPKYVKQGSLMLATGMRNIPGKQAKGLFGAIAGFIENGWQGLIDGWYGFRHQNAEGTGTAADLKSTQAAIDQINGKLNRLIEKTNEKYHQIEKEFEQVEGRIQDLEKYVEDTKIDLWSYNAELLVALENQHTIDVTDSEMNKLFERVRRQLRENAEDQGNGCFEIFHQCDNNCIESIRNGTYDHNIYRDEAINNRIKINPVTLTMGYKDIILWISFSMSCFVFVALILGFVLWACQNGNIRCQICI
full-length H7 HA of H7-FP34 (A/FPV/Rostock/34 (H7N1)), sequence (P03459 19-563): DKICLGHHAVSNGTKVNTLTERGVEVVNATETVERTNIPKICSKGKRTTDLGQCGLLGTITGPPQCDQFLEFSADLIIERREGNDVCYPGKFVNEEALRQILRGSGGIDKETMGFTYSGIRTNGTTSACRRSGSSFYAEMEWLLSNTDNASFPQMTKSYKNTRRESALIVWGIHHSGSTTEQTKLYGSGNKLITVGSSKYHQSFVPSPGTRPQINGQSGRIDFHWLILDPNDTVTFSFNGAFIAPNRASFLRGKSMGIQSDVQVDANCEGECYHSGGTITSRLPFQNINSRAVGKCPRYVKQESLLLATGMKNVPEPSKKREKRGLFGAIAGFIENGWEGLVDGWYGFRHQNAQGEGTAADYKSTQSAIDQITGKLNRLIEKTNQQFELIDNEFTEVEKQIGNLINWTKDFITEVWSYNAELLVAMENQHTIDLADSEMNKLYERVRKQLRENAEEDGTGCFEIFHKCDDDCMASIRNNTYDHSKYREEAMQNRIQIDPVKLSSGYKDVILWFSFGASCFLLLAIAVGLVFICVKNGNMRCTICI
full-length H1 HA of H1-SC1918 (A/South Carolina/1/1918 (H1N1)), sequence (Q9WFX3 18-566): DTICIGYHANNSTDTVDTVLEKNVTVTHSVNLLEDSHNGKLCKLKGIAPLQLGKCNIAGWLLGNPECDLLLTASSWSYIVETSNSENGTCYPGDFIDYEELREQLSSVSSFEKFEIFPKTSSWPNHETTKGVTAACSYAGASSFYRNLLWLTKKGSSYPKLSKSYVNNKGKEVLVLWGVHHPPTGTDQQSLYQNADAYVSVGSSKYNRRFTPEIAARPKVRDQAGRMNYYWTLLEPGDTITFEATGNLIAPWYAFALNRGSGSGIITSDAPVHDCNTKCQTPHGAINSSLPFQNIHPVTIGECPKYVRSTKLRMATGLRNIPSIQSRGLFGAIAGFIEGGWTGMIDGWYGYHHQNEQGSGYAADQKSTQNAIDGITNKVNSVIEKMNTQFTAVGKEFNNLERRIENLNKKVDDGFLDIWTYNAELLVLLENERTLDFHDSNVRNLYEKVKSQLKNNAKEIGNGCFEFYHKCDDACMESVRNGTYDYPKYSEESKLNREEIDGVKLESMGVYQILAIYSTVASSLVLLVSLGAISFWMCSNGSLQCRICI
full-length H8 HA of H8-ON68 (A/turkey/Ontario/6118/68), sequence (P03456 16-565 limits assumed): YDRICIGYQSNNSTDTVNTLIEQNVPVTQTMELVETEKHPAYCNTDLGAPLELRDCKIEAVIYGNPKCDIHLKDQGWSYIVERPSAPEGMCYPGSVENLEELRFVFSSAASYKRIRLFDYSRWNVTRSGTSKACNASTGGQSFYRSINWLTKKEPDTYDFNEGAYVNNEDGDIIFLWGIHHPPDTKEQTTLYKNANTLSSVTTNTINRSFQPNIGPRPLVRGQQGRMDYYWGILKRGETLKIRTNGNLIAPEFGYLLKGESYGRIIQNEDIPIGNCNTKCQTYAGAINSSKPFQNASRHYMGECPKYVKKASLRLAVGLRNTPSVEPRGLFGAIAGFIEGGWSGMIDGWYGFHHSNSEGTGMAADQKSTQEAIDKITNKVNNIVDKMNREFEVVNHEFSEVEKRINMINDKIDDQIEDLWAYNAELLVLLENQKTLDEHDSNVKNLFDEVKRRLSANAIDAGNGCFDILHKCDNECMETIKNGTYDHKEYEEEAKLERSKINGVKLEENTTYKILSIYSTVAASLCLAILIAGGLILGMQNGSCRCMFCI

B1: D8-IgG1 (antibody, V domains shown)
VH: QVQLVQSGAEVKKPGSSVKVSCKASGGTFSAYAFTWVRQAPGQGLEWMGGITGMFGTANYAQKFQGRVTITADELTSTAYMELSSLTSEDTALYYCARGLYYYESSLDYWGQGTLVTVSS
VL: QSVLTQPPSASGSPGQSVTISCTGTSSDVGGYNSVSWYQQHPGKAPKLMIYEVTKRPSGVPDRFSASKSGNTASLTVSGLQAEDEADYFCCSYAGHSAYVFGTGTKVTVL
[1]
  binding result: no binding
[2]
  binding result: binds
[3]
  binding result: binds
[4]
  binding result: no binding (tested: 10 µg/mL)
[5]
  binding result: binds
[6]
  binding result: binds
[7]
  binding result: binds

B2: F10-IgG1 (antibody, V domains shown)
VH: QVQLVQSGAEVKKPGSSVKVSCTSSEVTFSSFAISWVRQAPGQGLEWLGGISPMFGTPNYAQKFQGRVTITADQSTRTAYMDLRSLRSEDTAVYYCARSPSYICSGGTCVFDHWGQGTLVTVSS
VL: QPGLTQPPSVSKGLRQTATLTCTGNSNNVGNQGAAWLQQHQGHPPKLLSYRNNDRPSGISERFSASRSGNTASLTITGLQPEDEADYYCSTWDSSLSAVVFGGGTKLTVL
[1]
  binding result: no binding
[2]
  binding result: binds
[3]
  binding result: binds
[4]
  binding result: no binding (tested: 10 µg/mL)
[5]
  binding result: binds
[6]
  binding result: binds
[7]
  binding result: binds

B3: A66-IgG1 (antibody, V domains shown)
VH: QVQLVQSGAEVKKPGSSVKVSCKASGGPFSMTAFTWLRQAPGQGLEWMGGISPIFRTPKYAQKFQGRVTITADESTNTANMELTSLKSEDTAVYYCARTLSSYQPNNDAFAIWGQGTMVTVSS
VL: EIVLTQSPATLSLSPGERATLSCRASQSVSSYLAWYQQKPGQAPRLLIYDASNRATGIPARFSGSGSGTDFTLTISRLEPEDFAVYFCQQYGSSPQFGQGTRLEIK
[1]
  binding result: no binding
[2]
  binding result: binds
[3]
  binding result: binds
[4]
  binding result: no binding (tested: 10 µg/mL)
[5]
  binding result: binds
[6]
  binding result: binds
[7]
  binding result: binds
